Like-named read-outs stand apart in the source and are kept apart here.
B1: APB-R3 protein (protein)
heavy: QVQLVQSGGGPVKPGGSLRLSCAASGFMFRAYSMNWVRQAPGKGLEWVSSISSSGRYIHYADSVKGRFTISRDNAKNSLYLQMNSLRAEDTAVYYCARETVMAGKALDYWGQGTLVTVSSASTKGPSVFPLAPSSKSTSEGTAALGCLVKDYFPEPVTVSWNSGALTSGVHTFPAVLQSSGLYSLSSVVTVPSSSLGTQTYICNVNHKPSNTKVDKKVEPKSSGSAPAPGSTPVSQTTTAATASVRSTKDPCPSQPPVFPAAKQCPALEVTWPEVEVPLNGTLSLSCVACSRFPNFSILYWLGNGSFIEHLPGRLWEGSTSRERGSTGTQLCKALVLEQLTPALHSTNFSCVLVDPEQVVQRHVVLAQLWAGLRATLPPTQEALPSSHSSPQQQG
light: DIVLTQSPGTLSLSPGETATLSCRASQSVGSNLAWYQQKPGQAPRLLIYGASTGATGVPARFSGSRSGTDFTLTITSLQPEDFATYYCQQYYSFLAKTFGQGTQLEIKRTVAAPSVFIFPPSDEQLKSGTASVVCLLNNFYPREAKVQWKVDNALQSGNSQESVTEQDSKDSTYSLSNTLTLSKADYEKHKVYACEVTHQGLSSPVTKSFNRGES
B2: recombinant human IL-18-binding protein with His-tag (hIL18BP-his8) (other)
chain: TPVSQTTTAATASVRSTKDPCPSQPPVFPAAKQCPALEVTWPEVEVPLNGTLSLSCVACSRFPNFSILYWLGNGSFIEHLPGRLWEGSTSRERGSTGTQLCKALVLEQLTPALHSTNFSCVLVDPEQVVQRHVVLAQLWAGLRATLPPTQEALPSSHSSPQQQGHHHHHHHH

How the values were obtained:
recombinant human IL-18 [1] = target: T1, recombinant human IL-18 (human, UniProt Q14116)
Target sequence in this assay (Q14116 37-193 limits assumed): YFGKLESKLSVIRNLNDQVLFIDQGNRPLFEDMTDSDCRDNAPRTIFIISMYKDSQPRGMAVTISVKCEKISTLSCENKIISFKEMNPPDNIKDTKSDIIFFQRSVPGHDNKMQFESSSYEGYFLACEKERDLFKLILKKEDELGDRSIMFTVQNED

recombinant human IL-18 [2] = target: T1, recombinant human IL-18; test: cell-based or functional assay

Binder | IC50 of inhibition of IL-18-induced IFN-γ production in KG-1 cells (recombinant human IL-18 [1]) | IC50 of inhibition of IL-18-induced IFN-γ production in KG-1 cells (recombinant human IL-18 [2])
B1 | 0.0419 nM | –
B2 | – | 0.024 nM
